Reference: PMC1635730, “Mesothelin-MUC16 binding is a high affinity, N-glycan dependent interaction that facilitates peritoneal metastasis of ovarian tumors” (Molecular Cancer, 2006)
“And” between values parts separate entries of the source, which are not always exact repeats. Equal entries are not always repeated.

Target: T1, MUC16 expressed on the surface of the ovarian tumor cell line OVCAR-3 (human (endogenous in OVCAR-3), UniProt Q8WXI7 1-14507)
T1 construct: also called cell surface MUC16; MUC16 on OVCAR-3 cells; source: endogenous, on OVCAR-3 cells and the control subline #12
Experiment: flow cytometry on cells; OVCAR-3 cells with increasing amounts of meso-Fc for 1 h; mean fluorescence, non-linear regression (GraphPad Prism); apparent Kd
Conditions: one partner purified

- Kd: 5 nM and 5 to 10 nM
B1: recombinant mesothelin tagged with the Fc fragment of rabbit IgG (Fc fusion, human, UniProt Q13421 296-598, looked up)
chain: EVEKTACPSGKKAREIDESLIFYKKWELEACVDAALLATQMDRVNAIPFTYEQLDVLKHKLDELYPQGYPESVIQHLGYLFLKMSPEDIRKWNVTSLETLKALLEVNKGHEMSPQVATLIDRFVKGRGQLDKDTLDTLTAFYPGYLCSLSPEELSSVPPSSIWAVRPQDLDTCDPRQLDVLYPKARLAFQNMNGSEYFVKIQSFLGGAPTEDLKALSQQNVSMDLATFMKLRTDAVLPLTVAEVQKLLGPHVEGLKAEERHRPVRDWILRQRQDDLDTLGLGLQGGIPNGYLVLDLSMQEALS
notes: mesothelin, human, extracellular domain (the 40 kDa fragment of the 70 kDa precursor); GenBank AY743922; Modified pSecTag2 vector containing rabbit IgG Fc; Glycosylated (made in mammalian cells); also called meso-Fc; mesothelin-Fc; source: HEK 293T, transfected, harvested from the culture supernatant, purified (Hi-trap protein A column)
